Format in all cases: biochemical
Test [1] concerns the target T1, p105 (Homo sapiens, UniProt P19838).
T1 sequence (P19838 1-968): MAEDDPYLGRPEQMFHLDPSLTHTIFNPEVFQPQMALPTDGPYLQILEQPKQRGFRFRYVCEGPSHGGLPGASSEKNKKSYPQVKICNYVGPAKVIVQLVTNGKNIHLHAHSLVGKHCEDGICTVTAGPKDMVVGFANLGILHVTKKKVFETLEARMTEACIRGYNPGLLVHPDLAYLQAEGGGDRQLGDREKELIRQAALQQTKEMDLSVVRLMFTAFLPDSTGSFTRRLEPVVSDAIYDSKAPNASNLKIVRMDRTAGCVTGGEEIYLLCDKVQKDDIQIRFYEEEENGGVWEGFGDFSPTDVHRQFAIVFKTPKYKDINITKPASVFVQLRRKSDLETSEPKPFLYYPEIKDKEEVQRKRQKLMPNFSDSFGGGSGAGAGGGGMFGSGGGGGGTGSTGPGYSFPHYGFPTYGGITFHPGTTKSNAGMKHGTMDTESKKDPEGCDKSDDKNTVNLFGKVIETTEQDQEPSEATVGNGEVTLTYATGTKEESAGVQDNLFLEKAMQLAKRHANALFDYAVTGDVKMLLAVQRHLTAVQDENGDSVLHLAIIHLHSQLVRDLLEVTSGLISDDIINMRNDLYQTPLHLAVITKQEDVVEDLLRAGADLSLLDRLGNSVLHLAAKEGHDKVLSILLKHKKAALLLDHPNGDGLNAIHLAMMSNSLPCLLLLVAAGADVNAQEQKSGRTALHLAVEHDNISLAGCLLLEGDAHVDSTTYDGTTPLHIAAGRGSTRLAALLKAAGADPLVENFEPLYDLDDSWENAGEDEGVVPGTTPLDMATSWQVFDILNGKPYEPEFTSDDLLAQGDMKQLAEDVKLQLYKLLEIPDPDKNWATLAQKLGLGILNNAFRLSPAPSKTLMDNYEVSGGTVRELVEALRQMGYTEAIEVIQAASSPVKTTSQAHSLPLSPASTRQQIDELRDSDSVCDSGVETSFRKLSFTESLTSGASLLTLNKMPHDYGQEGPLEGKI
Put plainly: Competition by synthetic KPC1-derived peptides of p105 ubiquitination by KPC1-Δ1-967 in reconstituted cell-free system. Conditions: compared to 6 amino acids ILVRLW peptide. From the text:
Presented is the change (in %) of unconjugated p105 remained following addition of increasing concentrations of the peptides (compared to a system to which a peptide was not added; lane 3). Amid denotes N-terminal amidation and Ac denotes C-terminal acetylation.
Presented is the change (in %) of unconjugated p105 remained following addition of increasing concentrations of the peptides (compared to a system to which a peptide was not added; lane 2).
To further confirm that 7 amino acids WILVRLW of KPC1-Δ1-967 (SEQ ID. No. 5) are involved in the interaction with p105, an experiment was designed in which the binding of p105 to the ligase was competed with a synthetic peptides derived from KPC1.

Test [2] has as its target T1, p105. Put plainly: Processing of p105 by purified proteasome in cell free system in presence of KPC1 deleted species. Conditions: 35S-labeled p105 (FIG. 7). From the text: In vitro translated and ^355-labeled p105 was processed by purified proteasome (lanes 2-7) in the presence of purified KPC1-Δ1-967-6xHIS (lanes 4-5) or KPC1-Δ1-974-6xHIS (lanes 6-7) as indicated. Lane 8 represents processing of p105 in the system that contained Fraction 2. Cell extract is fractionated over the anion-exchange resin diethylaminoethyl (DEAE)-cellulose, where ubiquitin is eluted in Fraction I, the unabsorbed, flow-through material that contains also certain E2 enzymes. Fraction II, the high salt eluate, contains E1, the remaining E2s, all the E3s, and the 26S proteasome, but not free ubiquitin. Processing is the amount of p50 produced in the reaction. All values relate to 100%, which is the set point for processing of p105 in a system that lacks proteasome and KPC1 (lane 1).

For test [3], the target named is T1, p105. Put plainly: Ubiquitination of p105 by purified KPC1 species in cell-free conjugation assay. To be noted: reconstituted cell-free system, in vitro translated 35S-labeled p105, purified Ub, E1, E2, UbAl, ATP. An excerpt: FIGS. 4A and 4B represent western blots showing in vitro ubiquitination of p105 by mutated species of KPC1: FIG. 4A: In vitro translated and ^35S-labeled p105 was ubiquitinated by purified KPC1-Δ1-967-6xHIS (lanes 2-4) or KPC1-Δ1-974-6xHIS (lanes 5-7) in a reconstituted cell-free system. 4B) In vitro translated and ^355-labeled p105 was ubiquitinated by purified KPC1-Δ1-967-6xHIS (lanes 2,5,6), KPC1-Δ1-974-6xHIS (lane 3), KPC1-Δ967-1043-6xHIS (lane 4), WILVRLW-KPC1-Δ1-1039-6xHIS (lanes 7-8) or WILVRLW-KPC1-Δ1-1061-6xHIS (lanes 9-10) in a reconstituted cell-free system.
In order to assess if the interaction between two proteins leads to the conjugation of the substrate p105, ubiquitination reaction was performed in cell free system. The conjugation reaction was carried out in the presence of purified Ub, E1, E2, UbAl, ATP and KPC1—either wild-type or different mutant species. Samples were resolved via SDS-PAGE and the 35S-labeled p105 and its adducts were visualized using autoradiography. […] In addition, the shorter versions of KPC1 in which the 7 amino acids sequence were brought closer to RING domain, the active site of the enzyme were prepared. Both truncated KPC1 proteins that harbor the 7 amino acid sequence, WILVRLW-KPC1-Δ1-1039 (SEQ ID. No. 6) and WILVRLW-KPC1-Δ1-1061 (SEQ ID. No. 7), modified p105 (FIG. 4B, lanes 7-10).

Entries after “also recorded” stand apart in the source; their conditions may differ.

Consider “WILVRLW [synthetic 7 amino acids peptide, positions 968-974 of KPC1]”, for which the “inhibition of ubiquitination of p105 by KPC1-Δ1-967” value with p105 [1] (non-modified peptides (FIG. 6)) is “inhibited ubiquitination of p105 by KPC1-Δ1-967; also recorded: inhibits ubiquitination of p105”; with p105 [1] (peptides modified by N-terminal amidation and C-terminal acetylation (FIG. 5)), “inhibited ubiquitination of p105 by KPC1-Δ1-967; also recorded: inhibits ubiquitination of p105”.

B1: KPC1-Δ1-967-6xHIS: purified 6xHIS KPC1 deleted species that has the sequence of WILVRLW (protein)
chain: WILVRLWRGCGFGYRYTRLPHLLKTKLEDANLPSLQKPCPSTLLQQHMADLLQQGPDVAPSFLNSVLNQLNWAFSEFIGMIQEIQQAAERLERNFVDSRQLKVCATCFDLSVSLLRVLEMTITLVPEIFLDWTRPTSEMLLRRLAQLLNQVLNRVTAERNLFDRVVTLRLPGLESVDHYPILVAVTGILVQLLVRGPASEREQATSVLLADPCFQLRSICYLLGQPEPPAPGTALPAPDRKRFSLQSYADYISADELAQVEQMLAHLTSASAQAAAASLPTSEEDLCPICYAHPISAVFQPCGHKSCKACINQHLMNNKDCFFCKTTIVSVEDWEKGANTSTTSSAA
modifications: left off: small tags and cut ends
Take B1: the “processing of p105 by purified proteasome” value in the test with p105 [2] is given as “stimulates the processing of p105 by purified proteasome”.

B2: WILVRLW-KPC1-Δ1-1061: truncated KPC1 with the 7 amino acid sequence brought closer to RING domain, SEQ ID NO: 7 (protein)
chain: WILVRLWFVDSRQLKVCATCFDLSVSLLRVLEMTITLVPEIFLDWTRPTSEMLLRRLAQLLNQVLNRVTAERNLFDRVVTLRLPGLESVDHYPILVAVTGILVQLLVRGPASEREQATSVLLADPCFQLRSICYLLGQPEPPAPGTALPAPDRKRFSLQSYADYISADELAQVEQMLAHLTSASAQAAAASLPTSEEDLCPICYAHPISAVFQPCGHKSCKACINQHLMNNKDCFFCKTTIVSVEDWEKGANTSTTSSAA
For B2, the “ubiquitination of p105” value in the test with p105 [3] was “modified p105”.

B3: KPC1-Δ1-974-6xHIS: purified 6xHIS KPC1 deleted species lacking the 7 amino acids responsible for binding to p105 (protein)
chain: RGCGFGYRYTRLPHLLKTKLEDANLPSLQKPCPSTLLQQHMADLLQQGPDVAPSFLNSVLNQLNWAFSEFIGMIQEIQQAAERLERNFVDSRQLKVCATCFDLSVSLLRVLEMTITLVPEIFLDWTRPTSEMLLRRLAQLLNQVLNRVTAERNLFDRVVTLRLPGLESVDHYPILVAVTGILVQLLVRGPASEREQATSVLLADPCFQLRSICYLLGQPEPPAPGTALPAPDRKRFSLQSYADYISADELAQVEQMLAHLTSASAQAAAASLPTSEEDLCPICYAHPISAVFQPCGHKSCKACINQHLMNNKDCFFCKTTIVSVEDWEKGANTSTTSSAA
modifications: left off: small tags and cut ends
Regarding B3, in the test with p105 [2], the “processing of p105 by purified proteasome” value is reported as “could not stimulate processing”.

Values taken from US12421510B2, “Peptide, a complex and a method for treating cancer” (TECHNION RESEARCH & DEVELOPMENT FOUNDATION LIMITED, priority 2018, dated 2025).
